Consider one molecule from patent publication US20130244255A1 (published 2013).

For test [1], the target named is T1, GPNMB (CG56972) as expressed by human cell lines (human, UniProt Q14956 23-492).
T1 construct: Endogenous or transfected full-length protein on cells (FACS, killing assays) or in cell lysates (immunoprecipitation, blot); also called native GPNMB protein
T1 sequence: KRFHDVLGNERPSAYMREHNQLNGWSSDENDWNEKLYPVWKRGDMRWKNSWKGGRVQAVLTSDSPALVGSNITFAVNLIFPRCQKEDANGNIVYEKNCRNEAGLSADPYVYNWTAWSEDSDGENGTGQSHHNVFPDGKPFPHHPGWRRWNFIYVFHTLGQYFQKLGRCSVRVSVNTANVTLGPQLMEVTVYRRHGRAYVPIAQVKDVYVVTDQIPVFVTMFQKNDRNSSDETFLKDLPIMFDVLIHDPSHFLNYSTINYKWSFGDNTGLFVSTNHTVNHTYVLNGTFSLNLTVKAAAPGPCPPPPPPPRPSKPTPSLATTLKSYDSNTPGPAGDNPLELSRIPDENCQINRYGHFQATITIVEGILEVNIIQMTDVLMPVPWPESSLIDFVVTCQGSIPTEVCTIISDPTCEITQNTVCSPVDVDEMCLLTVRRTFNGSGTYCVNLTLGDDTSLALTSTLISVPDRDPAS
The test can be described thus: FACS on LOXIMVI cells.

For test [2], the target named is T1, GPNMB (CG56972) as expressed by human …. In words: FACS on T98G cells, CR011 10 ug/mL.
Procedure: (§1) Quantitative analysis of CG56972 expression on the surface of cell lines was determined by flow cytometry (FACS). […] Cells were fixed in 1% paraformaldehyde/PBS and examined on a Becton Dickinson FACSCalibur flow cytometer. Data analysis was performed with Becton Dickinson Cell Quest software version 3.3 and the geometric mean fluorescence intensity ratio (GMR) was determined for each cell type.
For test [3] the target is unchanged. In words: FACS on RPMI-7951 cells.
Test [4] shares this target. In words: FACS on SNB-78 cells, CR011 10 ug/mL.
Procedure: as §1
Test [5] has the same target. In words: FACS on MV4-11 cells, antibody 1 ug/mL.
Test [6] has the same target. In words: FACS on HL-60 cells, antibody 1 ug/mL.
Test [7] shares this target. In words: FACS on SR cells, antibody 1 ug/mL.
Procedure: (§2) Lymphoma or leukemia derived cells were washed twice with ice-cold FACS buffer and resuspended at 1 million cells per assay tube. […] Cells were then washed 2-3 times and resuspended in 1 mL of ice-cold FACS buffer. R-PE-conjugated goat anti-human antibody at 1:100 dilution was added and cells were incubated on ice for 30 min. Cells were washed 3 times with 1 mL of ice-cold FACS buffer, fixed with 0.5-1 mL of 1% formaldehyde in PBS and analyzed by Flow Cytometry.
For test [8] the target is unchanged. The test can be described thus: FACS on SW 1783 cells, CR011 10 ug/mL.
Procedure: as §1
The target is the same in test [9]. The test can be described thus: FACS on HUT-78 cells, antibody 1 ug/mL.
The target is the same in test [10]. In words: FACS on SU-DHL-4 cells, antibody 1 ug/mL.
The target is the same in test [11]. The test can be described thus: FACS on D534-MG cells, CR011 10 ug/mL.
Procedure: as §1
The target is the same in test [12]. The test can be described thus: FACS on U937 cells, antibody 1 ug/mL.
Procedure: as §2
Test [13] shares this target. The test can be described thus: FACS on ML-2 cells, antibody 1 ug/mL.
Procedure: as §2
For test [14] the target is unchanged. The test can be described thus: FACS on Karpas 299 cells, antibody 1 ug/mL.
Procedure: as §2
Test [15] shares this target. The test can be described thus: FACS on SK-N-SH cells, CR011 10 ug/mL.
Procedure: as §1
Test [16] has the same target. The test can be described thus: FACS on PL-21 cells, antibody 1 ug/mL.
Procedure: as §2
Test [17] has the same target. In words: FACS on U-118-MG cells, CR011 10 ug/mL.
Procedure: as §1
(§3) Geometric Mean ratios (GMR) were determined by flow cytometric analysis.
Test [18] has the same target. In words: FACS on AML-193 cells, antibody 1 ug/mL.
For test [19] the target is unchanged. In words: FACS on CCRF-CEM cells, antibody 1 ug/mL.
Procedure: as §2
For test [20] the target is unchanged. The test can be described thus: FACS on SU-DHL-1 cells, antibody 1 ug/mL.
Procedure: as §2
Test [21] shares this target. The test can be described thus: FACS on M14 cells.
Test [22] has the same target. The test can be described thus: FACS on SF-295 cells, CR011 10 ug/mL.
Procedure: as §1
Test [23] has the same target. The test can be described thus: FACS on SF-539 cells, CR011 10 ug/mL.
Procedure: as §1, §3
For test [24] the target is unchanged. In words: FACS on A2058 cells.

B1: CR011 mAb 1.15.1 (IgG2) (antibody)
heavy: QVQLQESGPGLVKPSQTLSLTCTVSGGSISSFNYYWSWIRHHPGKGLEWIGYIYYSGSTYSNPSLKSRVTISVDTSKNQFSLTLSSVTAADTAVYYCARGYNWNYFDYWGQGTLVTVSSASTKGPSVFPLAPCSRSTSESTAALGCLVKDYFPEPVTVSWNSGALTSGVHTFPAVLQSSGLYSLSSVVTVPSSNFGTQTYTCNVDHKPSNTKVDKTVERKCCVECPPCPAPPVAGPSVFLFPPKPKDTLMISRTPEVTCVVVDVSHEDPEVQFNWYVDGVEVHNAKTKPREEQFNSTFRVVSVLTVVHQDWLNGKEYKCKVSNKGLPAPIEKTISKTKGQPREPQVYTLPPSREEMTKNQVSLTCLVKGFYPSDIAVEWESNGQPENNYKTTPPMLDSDGSFFLYSKLTVDKSRWQQGNVFSCSVMHEALHNHYTQKSLSLSPGK
VL: not shown
notes: also called CR011.1.15.1; CR011 IgG2
For the molecule B1, the “Geo Mean Ratio (relative to isotype)” value in test [1] came to 1 ratio; in test [3], 6 ratio; in test [21], 16.1 ratio; in [24], 4.1 ratio. Moreover, the “CR011 Fold Shift (GMR)” value in test [2] worked out at 1.3 fold; in test [4] it was 8.6 fold; in test [8] it was 1.1 fold; in test [11] it was 2.3 fold; in test [15], 2 fold; in test [17] it was 7.4 fold. Besides, the “CR011 Fold Shift (GMR)” value was 1.8 fold in test [22] and 5.4 fold in test [23]. Besides, the “Geo Mean Ratio” value in [5] is 1.9 ratio; in test [6], 2.3 ratio; in test [7] it was 7.1 ratio; in [9], 1.5 ratio; in [10], 1.8 ratio; in test [12], 17.3 ratio. Further, the “Geo Mean Ratio” value was found to be 2.1 ratio in test [13]; 10.7 ratio in test [14]; 12 ratio in [16]; 1.8 ratio in test [18]; 10.9 ratio in [19]; 4.8 ratio in test [20].
